# Experimental data reported in patent publication US20190177704A1, “MODIFIED LUCIFERASE” (RIKEN, priority 2016, published 2019).
# Legend:
# Assay type in all cases: cell-based
# [1] = Emission intensity of luciferase-expressing HeLa S3 cells with 6-AkaLumine; conditions: emission intensity of D-luciferin defined as 1
# Procedure: (§1) A plasmid pcDNA3 was treated with use of BamHI and EcoRI, and genes encoding the respective luciferases above were each inserted into the plasmid pcDNA3 to produce plasmids for transfection.
# (§2) HeLa S3 cells were used as mammalian cells to be transfected. For each of the luciferases above, HeLa S3 cells which had been cultured in D-MEM (low glucose, containing 10% FBS and 1% penicillin streptomycin, Wako Pure Chemical Industries, Ltd.) and were in an 80% confluent state were mixed with a transfection reagent (Polyethylenimine, Linear (MW 25,000, Polysciences, Inc)) and the plasmid for transfection (0.3 μg) to conduct transfection.
# (§3) 24 hours after the transfection, the cells were dissociated through trypsinization, and were suspended in DMEM/F12 (10% FBS, gibco). Subsequently, centrifugation was conducted to remove the supernatant, and then the cells were resuspended in 1 mL DMEM/F12 so as to be used as luciferase-expressing cells.
# (§4) In 1.5 mL Eppendorf tube, 20 μL of the produced luciferase-expressing cells and 80 μL of a substrate solution (prepared with pH 7.4 PBS) were mixed, and light emission from the obtained mixture was measured for one minute (with use of a luminometer AB-2280 manufactured by ATTO Corporation). An integrated value of the values thus measured within one minute was defined as the emission intensity.
# (§5) Subsequently, with use of D-luciferin, AkaLumine, AkaLumine-OH, 6-AkaLumine, 0-AkaLumine, monoene NMe2, monoene NH2, monoene OH, and biphenyl as substrates, specificity to each of these substrates was evaluated. The substrates are respectively represented by the following chemical formulae. Each substrate solution contains a single kind of substrate.
# (§6) Tables 3 through 8 show results of relative emission intensities in a case where the emission intensity of D-luciferin is defined as 1.
# [2] = Emission intensity of luciferase-expressing HeLa S3 cells with AkaLumine-OH; conditions: emission intensity of D-luciferin defined as 1
# Procedure: as §1, §2, §3, §4, §5, §6
# [3] = Emission intensity of luciferase-expressing HeLa S3 cells with monoene OH; conditions: emission intensity of D-luciferin defined as 1
# Procedure: as §1, §2, §3, §4, §5, §6
# [4] = Emission intensity of luciferase-expressing HeLa S3 cells with biphenyl; conditions: emission intensity of D-luciferin defined as 1
# Procedure: as §1, §2, §3, §4, §5, §6
# [5] = Emission intensity of luciferase-expressing HeLa S3 cells with D-luciferin; conditions: for relative emission intensity, Dluc: emission intensity of D-luciferin defined as 1; for D-luciferin emission intensity, relative value: relative to 1.0 = emission intensity of luc2 with AkaLumine, 80 μM substrate, integrated over one minute
# Procedure: as §1, §2, §3, §4
# (§7) As the substrate solution, AkaLumine or D-luciferin (80 μM each) was added. Results of the measurement of emission intensity are shown below in Table 2 as relative values with respect to 1.0 which is an emission intensity obtained in a case where AkaLumine was added to a sample of luc2.
# as §5, §6
# [6] = Emission intensity of luciferase-expressing HeLa S3 cells with monoene NMe2; conditions: emission intensity of D-luciferin defined as 1
# Procedure: as §1, §2, §3, §4, §5, §6
# [7] = Emission intensity of luciferase-expressing HeLa S3 cells with AkaLumine; conditions: for relative emission intensity, AKA: emission intensity of D-luciferin defined as 1; for relative emission intensity, AKA / AkaLumine emission intensity, relative value: HeLa S3 cells; for AkaLumine emission intensity, relative value: relative to 1.0 = emission intensity of luc2 with AkaLumine, 80 μM substrate, integrated over one minute
# Procedure: as §1, §2, §3, §4, §7, §5, §6
# [8] = Emission intensity of luciferase-expressing HeLa S3 cells with monoene NH2; conditions: emission intensity of D-luciferin defined as 1
# Procedure: as §1, §2, §3, §4, §5, §6
# [9] = Emission intensity of luciferase-expressing HeLa S3 cells with 0-AkaLumine; conditions: emission intensity of D-luciferin defined as 1
# Procedure: as §1, §2, §3, §4, §5, §6
Molecule,"relative emission intensity, 6-AKA [1]","relative emission intensity, AKA-OH [2]","relative emission intensity, monoOH [3]","relative emission intensity, biph [4]","relative emission intensity, Dluc [5]","relative emission intensity, monoNMe2 [6]","relative emission intensity, AKA [7]","relative emission intensity, monoNH2 [8]","relative emission intensity, O-AKA [9]","D-luciferin emission intensity, relative value [5]","AkaLumine emission intensity, relative value [7]","AkaLumine/D-luciferin ([7]; ratio of relative emission intensities, Table 2)"
"N229Y_S347N: luc2 variant with N229Y and S347N mutations (SEQ ID NO: 2) (protein, Modified Luciferase) MEDAKNIKKGPAPFYPLEDGTAGEQLHKAMKRYALVPGTIAFTDAHIEVDITYAEYFEMSVRLAEAMKRYGLNTNHRIVVCSENSLQFFMPVLGALFIGVAVAPANDIYNERELLNSMGISQPTVVFVSKKGLQKILNVQKKLPIIQKIIIMDSKTDYQGFQSMYTFVTSHLPPGFNEYDFVPESFDRDKTIALIMNSSGSTGLPKGVALPHRTACVRFSHARDPIFGYQIIPDTAILSVVPFHHGFGMFTTLGYLICGFRVVLMYRFEEELFLRSLQDYKIQSALLVPTLFSFFAKSTLIDKYDLSNLHEIASGGAPLSKEVGEAVAKRFHLPGIRQGYGLTETTNAILITPEGDDKPGAVGKVVPFFEAKVVDLDTGKTLGVNQRGELCVRGPMIMSGYVNNPEATNALIDKDGWLHSGDIAYWDEDEHFFIVDRLKSLIKYKGYQVAPAELESILLQHPNIFDAGVAGLPDDDAGELPAAVVVLEHGKTMTEKEIVDYVASQVTTAKKLRGGVVFVDEVPKGLTGKLDARKIREILIKAKKGGKIAV",9.6 × 10^2,2.1,1.4 × 10^−2,6.9,1.0,2.4 × 10^2,6.4 × 10^3,1.7,,,,
"N229Y_H310Q_S347N: luc2 variant with N229Y, H310Q and S347N mutations (SEQ ID NO: 4) (protein, Modified Luciferase) MEDAKNIKKGPAPFYPLEDGTAGEQLHKAMKRYALVPGTIAFTDAHIEVDITYAEYFEMSVRLAEAMKRYGLNTNHRIVVCSENSLQFFMPVLGALFIGVAVAPANDIYNERELLNSMGISQPTVVFVSKKGLQKILNVQKKLPIIQKIIIMDSKTDYQGFQSMYTFVTSHLPPGFNEYDFVPESFDRDKTIALIMNSSGSTGLPKGVALPHRTACVRFSHARDPIFGYQIIPDTAILSVVPFHHGFGMFTTLGYLICGFRVVLMYRFEEELFLRSLQDYKIQSALLVPTLFSFFAKSTLIDKYDLSNLQEIASGGAPLSKEVGEAVAKRFHLPGIRQGYGLTETTNAILITPEGDDKPGAVGKVVPFFEAKVVDLDTGKTLGVNQRGELCVRGPMIMSGYVNNPEATNALIDKDGWLHSGDIAYWDEDEHFFIVDRLKSLIKYKGYQVAPAELESILLQHPNIFDAGVAGLPDDDAGELPAAVVVLEHGKTMTEKEIVDYVASQVTTAKKLRGGVVFVDEVPKGLTGKLDARKIREILIKAKKGGKIAV",1.1 × 10^3,1.4,1.3 × 10^−1,,1.0,,4.1 × 10^3,7.3 × 10^−1,2.1 × 10^−3,,,
"Variant b: luc2 variant with the mutations of column b in Table 1 (SEQ ID NO: 5) (protein, Modified Luciferase) MEDAKNIKKGPAPFYPLEDGTAGEQLHKAMKRYALVPGAIAFTDAHIQVDVTYAEYFEMSVRLAEAMRRYGLNTNHRIVVCSENSLQFFMPVLGALFIGVAVAPANDIYNERELLNSMGISQPTVVFVSKKGLRKVLDVQKKLPIIRKIIIMDSKTDYQGFQSMYTFVASHLPPSFNEYDFVPECFDRDKTIALIMNSSGSTGLPKGVALPHRTACVRFSHARDPIFGYQNIPDTAILSVVPFHHGFGMFTTLGYLICGFRVVFMYRFEEELFLRSLQDYKIQSALLVPTLFSCLAKSTLIDKYDLSSLREIASGGAPLSKEVGEAVAKRFRLPGIRQGYGLTETTNAVMITPEGDRKPGSVGKVVPFFEAKVVDLVTGKTLGVNQRGELCVRGPMIMSGYVNNPEATNALIDKDGWLHSGDIAYWDEDEHFFIVDRLKSLIKYKGYQVAPAELEGILLQHPYIFDAGVAGLPDDDAGELPAAVVVLEHGKTMTEKEIVDYVASQVTTAKKLRGGVVFVDEVPRGPTGKLDARKIREILTKAKKDGKIAV",8.1 × 10^2,0.9,1.5 × 10^−2,3.1,1.0,,2.4 × 10^3,1.2 × 10^−1,,not detected,2.4,
"Variant c: luc2 variant with the mutations of column c in Table 1 (SEQ ID NO: 6) (protein, Modified Luciferase) MEDAKNIKKGPAPFYPLEDGTAGEQLHKAMKRYALVPGAIAFTDAHIQVDVTYAEYFEMSVRLAEAMRRYGLNTNHRIVVCSENSSQFFMPVLGALFIGVAVAPANDIYNERELLNSMGISQPTVVFVSKKGLRKVLNVQKKLPIIRKIIIMDSKTDYQGFQSMYTFVTSHLPPSFNEYDFVPESFDRDKTIALIMNSSGSTGLPKGVALPHRTACVRFSHARDPIFGYQNIPDTAILSVVPFHHGFGMFTTLGYLICGFRVVLMYRFEEELFLRSLQDYKIQSALLVPTLFSCLAKSTLIDKYDLSSLREIASGGAPLSKEVGEAVAKRFRLPGIRQGYGLTETTNAVMITPEGDRKPGSVGKVVPFFEAKVVDLVTGKTLGVNQRGELCVRGPMIMSGYVNNPEATNALIDKDGWLHSGDIAYWDEDEHFFIVDRLKSLIKYKGYQVAPAELEGILLQHPYIFDAGVAGLPDDDAGELPAAVVVLEHGKTMTEKEIVDYVASQVTTAKKLRGGVVFVDEVPRGSTGKLDARKIREILTKAKKDGKIAV",1.8 × 10^3,1.8,1.1 × 10^−1,4.1,1.0,,9.0 × 10^3,1.8 × 10^−1,,not detected,6.8,
"Variant d: luc2 variant with the mutations of column d in Table 1 (SEQ ID NO: 7) (protein, Modified Luciferase) MEDAKNIKKGPAPFYPLEDGTAGEQLHKAMKRYALVPGAIAFTDAHIQVDVTYAEYFEMSVRLAEAMRRYGLNTNHRIVVCSENSSQFFMPVLGALFIGVAVAPANDIYNERELLNSMGISQPTVVFVSKKGLRKVLNVQKKLPIIRKIIIMDSKTDYQGFQSMYTFVTSHLPPSFNEYDFVPECFDRDKTIALIMNSSGSTGLPKGVALPHRTACVRFSHARDPIFGYQNIPDTAILSVVPFHHGFGMFTTLGYLICGFRVVLMYRFEEELFLRSLQDYKIQSALLVPAPFSCLAKSTLIDKYDLSSLREIASGGAPLSKEVGEAVAKRFRLPGIRQGYGLTETTNAVMITPEGDRKPGSVGKVVPFFEAKVVDLVTGKTLGVNQRGELCVRGPMIMSGYVNNPEATNALIDKDGWLHSGDIAYWDEDEHFFIVDRLKSLIKYKGYQVAPAELEGILLQHPYIFDAGVAGLPDDDAGELPAAVVVLEHGKTMTEKEIVDYVASQVTTAKKLRGGVVFVDEVPRGPTGKLDARKIREILTKAKKDGKIAV",1.5 × 10^3,9.8 × 10^−1,7.1 × 10^−2,7.5,1.0,6.6,3.4 × 10^3,1.3 × 10^−1,,1.8 × 10^−3,6.1,3.4 × 10^3
